Measurements published in publication PMC3527528.

Target: Ssl1 (S. sviceus laccase 1), small two-domain laccase from Streptomyces sviceus, without the twin-arginine signal peptide (Streptomyces sviceus)
Experiment: SEC-MALS; Superdex 200 10/300 GL, 0.5 mL/min, 50 mM potassium phosphate pH 7.5; 100 µL of Ssl1 at 7.5 mg/mL injected; multi-angle static light scattering with refractometer

- stoichiometry N: 3
Substance: Ssl1 (S. sviceus laccase 1), small two-domain laccase from Streptomyces sviceus, without the twin-arginine signal peptide (enzyme)
